This data set in a line: protein stability index of a GFP-peptide fusion (GPS, HEK-293T) (PSI 1-6); higher = more stable.
[1] abbreviates: treatment: DMSO, c terminus: a fixed tail appended.
The mark [2] stands for this setting: treatment: MLN4924 1 uM, 8 h, c terminus: a fixed tail appended.

± gives the standard deviation.
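Note: 24-mer peptide tiles fused after GFP, lentivirally expressed, FACS-sorted into six equal bins by GFP/DsRed ratio, decoded by Illumina sequencing, PSI is the read-weighted mean bin number.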

FQDAIFPDTQENRRMFSSLFQFSN [CCDC3]: the protein stability index reads like this: under setting [1], 2.38 ± 0.43; under setting [2], 2.58 ± 0.37. In the case of FRENGRNCKRERDARVKRKLRGPE [TBX6], the protein stability index runs as follows: under setting [1], 3.92 ± 0.3; under setting [2], 4.05 ± 0.22. Take FRIFIIWAISSWFRRGPAPQDQAG [CLPTM1]: the protein stability index reads like this: under setting [1], 2.23 ± 0.2; under setting [2], 1.87 ± 0.28. As for FRPGHLLANACLPVRTTNKISKQF [ZSWIM9], the protein stability index reads like this: under setting [1], 2.78 ± 0.12; under setting [2], 2.8 ± 0.19.

As to FRQFGYQDSPGPREAVSQLRELCR [ZNF24], the protein stability index by setting is: under setting [1], 3.37 ± 0.17; under setting [2], 3.38 ± 0.15. Turning to FRQYCGAACTCHVRNPLSACSIM [RNF208], the protein stability index reads like this: (treatment: DMSO, c terminus: native) 2.09 ± 0.19; (treatment: MLN4924 1 uM, 8 h, c terminus: native) 2.18 ± 0.2. As for FRVVDCDQFTQVFLESQGIELNPP [EFHC1], the protein stability index is, setting by setting: under setting [1], 2.01 ± 0.14; under setting [2], 2.27 ± 0.17.

For the sequence FSDIPSPYLRGTIKMMQAVRQAFQ [GFOD1], the protein stability index is, setting by setting: under setting [1], 2.38 ± 0.2; under setting [2], 2.17 ± 0.17. As for FSPANPESSMEDCLAHLGEKVSQE [BCL2L13], the protein stability index was found to be 5.2 ± 0.38 under setting [1] and 5.39 ± 0.16 under setting [2]. As to FSSLNHIVEKRVLAHLAPLFDNPK [INTS3], the protein stability index by setting is: under setting [1], 2.27 ± 0.18; under setting [2], 2.4 ± 0.44. Take FTLNFFRSGIQFGSWGSFQLPGLL [CLCN6]: the protein stability index under setting [1] was found to be 2.93 ± 0.36 and the protein stability index under setting [2] amounted to 3.02 ± 0.97.

As to FVEDSFDPNINPTIGASFMTKTVQ [RAB22A], the protein stability index was determined as 2.97 ± 0.27 under setting [1] and 3.34 ± 0.46 under setting [2].

For the sequence FVKALDDLHKMNHVTPPNVSLGAT [JUNB], the protein stability index turned out to be 2.43 ± 0.34 under setting [1] and 2.94 ± 0.49 under setting [2]. As to FVWYTPPTFMIAVFLPIVVLIFKS [STEAP1], the protein stability index was determined as 3.33 ± 1.6 under setting [1] and 2.81 ± 1.2 under setting [2]. For FWLQNSSPSSDRVSAIIWEGNECK [PHTF1], the protein stability index worked out at 2.41 ± 0.32 under setting [1] and 3.07 ± 0.4 under setting [2].

In the case of FYGLLFTSENLKLVHIVCHKKTTH [DFFB], the protein stability index is, setting by setting: under setting [1], 2.73 ± 0.56; under setting [2], 2.58 ± 0.31. Take FYHYFEDKENIYILLEYCSRRSMA [PLK2]: the protein stability index runs as follows: under setting [1], 2.34 ± 0.53; under setting [2], 2.21 ± 0.27. GADNIDVSHPIIYRGAVYADNMEF [FEM1B]: the protein stability index reads like this: under setting [1], 3.11 ± 0.17; under setting [2], 3.21 ± 0.48. Turning to GAGFGGGLGAGFGGGFAGGDGLLV [KRT16], the protein stability index reads like this: under setting [1], 2.58 ± 0.82; under setting [2], 2.46 ± 0.92. For the sequence GAMLGQTTSEEAVGGATPDQTTSE [HDAC6], the protein stability index amounted to 4.91 ± 0.58 under setting [1] and 5.59 ± 0.073 under setting [2]. In turn, GAQPCLLLPIVPLSWLVWLLLLLL [ADAMTS4] had a protein stability index under setting [2] of 2.67 ± 1.3.

In the case of GCALTTFSVLEGEKNNHRAKDLRA [SOAT1], the protein stability index amounted to 3.49 ± 0.52 under setting [1] and 3.83 ± 0.63 under setting [2].

For the sequence GCLKMNPDDRLTCSQLLESSYFDS [CDKL4], the protein stability index by setting is: under setting [1], 3.4 ± 0.45; under setting [2], 3.54 ± 0.21. On to GDKYEHHSYMGMRGFCAFLGSWLV [POMT2], for which the protein stability index is 2.23 ± 0.57 under setting [1] and 1.73 ± 0.29 under setting [2]. Taken in the same sequence, the figures for GDSFSHSSNRIRHLRTHTGERPYK [ZNF263] were 4.28 ± 0.14 and 4.62 ± 0.16. On to GDSGERSEGEAMEICSEPVAASPA [ZNF511], for which the protein stability index is, setting by setting: under setting [1], 5.47 ± 0.24; under setting [2], 5.52 ± 0.26. As for GEIETIARFGSGPCKTRDDEPVCG [APMAP], the protein stability index is, setting by setting: under setting [1], 4.66 ± 0.47; under setting [2], 5.13 ± 0.27. Consider GGADIIVIKYNVNDKFSFHEVKDN [RHOBTB3], for which the protein stability index is, setting by setting: under setting [1], 2.72 ± 0.42; under setting [2], 2.09 ± 0.55. For the sequence GGAGREDPGLWSRLCRLAGASSPA [ZSWIM9], the protein stability index reads like this: under setting [1], 3.12 ± 0.17; under setting [2], 2.92 ± 0.36.
